T1: Rad51 (S. cerevisiae), P25454
T1 chain: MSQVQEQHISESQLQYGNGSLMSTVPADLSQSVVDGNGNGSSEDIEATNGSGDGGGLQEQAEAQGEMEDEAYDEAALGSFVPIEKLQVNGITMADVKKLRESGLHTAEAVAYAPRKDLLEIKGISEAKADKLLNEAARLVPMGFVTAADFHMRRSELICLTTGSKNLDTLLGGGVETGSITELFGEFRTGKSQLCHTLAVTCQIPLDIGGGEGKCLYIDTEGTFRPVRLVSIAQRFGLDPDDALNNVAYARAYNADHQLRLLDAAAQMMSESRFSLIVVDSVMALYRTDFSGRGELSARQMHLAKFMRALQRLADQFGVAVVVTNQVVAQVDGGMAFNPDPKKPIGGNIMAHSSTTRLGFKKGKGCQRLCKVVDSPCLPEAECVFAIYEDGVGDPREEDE

B1: Rad51 (natural protein, S. cerevisiae, UniProt P25454 1-400, looked up)
chain: T1 chain
notes: Oligomeric alone in solution; also called full-length unlabeled Rad51

These molecules were tested against Rad51 (in yeast cells) (UniProt P25454) (assay: co-immunoprecipitation (co-IP)). Details: read off a plot.

| other: interaction loss by coIP (%) | Molecule |
| --- | --- |
| 99% | Rad52-FLAG (from UniProt P06778) A319 |
| 27% | Rad52-FLAG (from UniProt P06778) L363 |
| 79% | Rad52-FLAG (from UniProt P06778) P381 |
| 100% | Rad52-FLAG (from UniProt P06778) S355 |
| 33% | Rad52-FLAG (from UniProt P06778) S374 |
| 97% | Rad52-FLAG (from UniProt P06778) T318 |
| 80% | Rad52-FLAG (from UniProt P06778) V317 |
| 89% | Rad52-FLAG (from UniProt P06778) V325 |
| 49% | Rad52-FLAG (from UniProt P06778) V350 |
| 100% | Rad52-FLAG (from UniProt P06778) V358E |

Target: T1, Rad51 (S. cerevisiae), P25454
Test: SEC-SAXS; Rad51 + Rad52 (295–408) 1:1; SWING beamline in SEC mode, Superdex 5/150 GL column; peak deconvolution; molecular weight from SAXS
Details: remark: other sources report otherwise

| stoichiometry N | Molecule |
| --- | --- |
| 4 | B1 |

What follows are molecules tested against T2, Rad52 (295–408) (S. cerevisiae, UniProt P06778 295-408, uniform 15N labelling) in the same assay as above. Details: both partners purified.
T2 construct: numbered from the first AUG codon in RAD52 mRNA (protein of 471 residues); Cloned in pETM30; also called Rad52C-ter; Rad52-Cter; source: E. coli BL21(DE3), purified (GSH-sepharose, TEV cleavage, Ni Sepharose, PD10)
T2 sequence (P06778 295-408): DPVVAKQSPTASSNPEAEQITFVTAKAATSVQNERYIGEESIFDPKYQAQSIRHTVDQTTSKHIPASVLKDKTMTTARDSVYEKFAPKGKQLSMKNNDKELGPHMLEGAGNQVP

| stoichiometry N | Molecule |
| --- | --- |
| 1 | B1 |

Source: publication PMC12218292 (Nature Communications, 2025)
